Reference: the DeepSol protein solubility set

Assay: soluble on expression in E. coli; label from the status in PepcDB or PDB records

Sequence | soluble on expression in E. coli
MSLNRPLRIGIVVGELSGDTLGEGFIKAIRARYPDAEFVGIGGPKMNALGCQSLFDMEELAVMGLVEVLGRLPRLLKVKAELVKYFTANPPDVFVGIDAPDFNLRLELSLKQAGIKTVHYVSPSVWAWRQNRIHGIAAATHLVLAFLPFEKAFYDKFNVPCEFIGHTLADSIPLASDKLAARQLLGLDEQRRWLAVLPGSRGSEMKMLAEPFIATCQKLQARYPDLGFVVALVNAKRRAQFEQAWQQVAPELNFVLVDDTARNVITAADAVMLASGTVALECMLLKRPMVVGYRVNAFTAFLAKRLLKTPYVSLPNILAGEELVKELLQDHCTVDNLYHEVSRLLESDNQALMDKFTEMHQWIRKDADQQAAQAVLHLIQKEGHHHHHH | not soluble
SDDREMDDGRWKASALRVPLQVSSAVIKQEVVTRLAPDPVPLTEGAIGIFLSGTEPESGQEDSGYKVIDNRKYVYSEGHWGPPTANDTIYLVGNDADVCAYYPYKDSYTDKTVIPLQSQDYVETEDIYYALNTMINGFTPAITFDMVHAYSLVELKISRENYFMPCEISKITLKNSNLIKKGTINIAVDGSIHSSETGNYDLTTVTDASPHTLSVGESYVCRVLMIPVPLKIERTDAEGGEFGLSVSLVIDGQQMLVEIPYSELGEFRQGEKYVIGLKIKGTEIVPTVKALEWEDEEVNGGNKYPVE | soluble
MSHVQAVIFDAFGTITRIENARHPFRQLLKLGIAQGRRPKPDDASMLMRHPWGLAQAADHFGIDVTPAELARIQAELDAEVASIQPFADALACIEALQAHGLKVAVCSNLARPYGAAVKRIFPGLESYGFSYEIGTLKPDRRIYEAALTELAVDACKVWMIGDSQRCDRDGPIALGIKGHYLNRTGAGSPSDFRDLMAFKHSVFESRSP | not soluble
DPRLARLLGLHTQSRSAIVQALWQYVKTNRLQDSHDKEYINGDKYFQQIFDCPRLKFSEIPQRLTALLLP | soluble
MGHHHHHHSHMAPGGLFLPYHSLPQPDFLASCPTRHLKLCQCPGILAENPHQFSPTFPPGKGSCQHGALPGQVSLKEAAHTEMSLSGQDLFPSPAHPPLQPFWLPFSLCLSTPFLVADNELRLPKGQICPLHVFVLANRVVLKLCANSVWEHSKGIT | not soluble
MVGSLLPSHATEFEKRLADACDFHQDVDGAVLGISRAKLITRPPRFLPWLIEEYGLGELTPYVPNLYDLIDQGLAWQRLRGSVAAIELGLKWLELSARFTPAWSGRAWWNSFQLDFDQLPEQSSLEAIEAIVDLSKSFRSDFRRSTYGYDVEATEGDMSHLDDSMLDFESGVRLTARDTLFSFGRTTQIKHTLTKEEGKLIGNWIDDVDEELSWNQIDYPWELANFPWCSVKKHERDILIAKWFQNRPLYLALRDLDNTLIGYRRCYAVQPVEQAVEGVYSHCGNRFNPSPTGTMLFLAARTDFEDVENKQAASVPLLVHGSLVEQTPLGKLWLGADELRGGVEILKTPINIPLRADVREQFKILLRF | not soluble
MSCTRRQFITRVGALAAVSGMAGRVVANTLNINGVRYGMVHDESLCIGCTACMDACREVNTVPEGVSRLTIIRSEPQGTFPDVKYRFFRHSCQHCDHAPCVDVCPTGASFRDAASGIVDVNPDLCVGCQYCIAACPYRVRFIHPVSKTADKCDFCRKTNLKAGKQPACVESCPTKALTFGNLDDPNSDISRLLRQKTTYRYKLALGTKPKVYRVPFNYGEVSQ | not soluble
MKPICIIPARSGSKGLPDKNMLFLSGKPMIFHTIDAAIESGMFDKKDIFVSTDSELYREICLERGISVVMRKPELSTDQATSYDMLKDFLSDYEDNQEFVLLQVTSPLRKSWHIKEAMEYYSSHDVDNVVSFSEVEKHPSLFTTLSDEGYAIDMVGADKGYRRQDLQPLYYPNGAIFISNKETYLREKSFFTSRTYAYQMAKEFSLDVDTRDDFIHVIGHLFFDYAIREKENKVFYKEGYSRLFNREASKIILGDSKTISTSLESYHNYSQGGVTLATMLENLPNFLTANVTEAFVSIGVNDLITGYSVEEIFSNFQKLYSLLAENKIKMRLTTIAYTLFRETVNNADIEKINQWLTEFCYQNQIPLLDINRFLSKDGNLNYHLTSDGLHFTQEANDLLQSQYQLFVDEVKTLLEHHHHHH | soluble
MGSDKIHHHHHHMTDDQIHQTDWLQRGRDVLDIEAEGIRAVRDRLGPSFESALALLAGCRGRVVVTGLGKSGLVGRKLAATFSSTGSPAFFLHPVEGAHGDMGSLKADDVVIAISNSGETDELNAILPSLRAIGTPIIALTGRADSSLGRGADIVLDCGVPREACPLGLAPTASTTAVLALGDALAVCLIDWKSFTENDFLRYHPGGSLGQRLRLRVAELMHTEGIPVVNEEAVCEEAVLALDKGGFGAVALTDGGGRLTGILTDGDVRRAVLRGTYGPRVGVTHIMTRNPRFARQTQSVAELIDIMEQKAITVLPITDDDHRLVGLVHLHDLLGKGGVTFAG | not soluble
MSLADNRDELKETLRTLLRDNPDLVLEVLREHSETVLEIAQQGANQRRRKVLVAQWKTDLEDPKKVNLADRPVRGEANAPVTVVAYSDFTCPYCQQAAGTVEMLLANYKGKVRYVFKQMPLETHENARTASNYYVAASLQDPAKAWKLYEAVFADRDRLVTEGEPFLKKVAQEAGLDMQRLATDIKGRKVKALIEEDMAEARKLGVQGTPYFLVNDLVVRGALPLDLFSDAVDMALEKAGAKEGHHHHHH | soluble
MMMGEVQSLPSCGLHPRLLDALTLALAARPQEKAPGRYELQGDNVFMNVMQLTTQMPAEKKAELHEQYIDIQLLLTGVERIAFGMSGAARQCEEMHVEEDYQLCSQIVDEQTITLQAGMFAVFMPGEPHKPGCAVGEPDDIKKVVVKVRASLLAA | not soluble
MGSDKIHHHHHHMRRIRTLLSKKPSKLVFNLRKYAAFRQAWKSINVNRTSYSKTRRHYDAVVIGSDEVWNIQNPTFAMMPEYFGRGLNAKNIITYAPSSSKTTYADVAQNPLLAEGMRNIHHFSARDRNTFEIVEKIVNKPVTMVLDPTFLVEYDEEVEEAGVNSHGYVLVYTYQFDRLKIEKTRRFARSRGLRLISPCFYNDWCDEVVPCTPFGFLGLIRDAEYVVTDTFHGSIFSILYGKHFGSYASEKIKVAALLSALGLADRELGGVDDIGSVLDARIDYGRVRTCIEQERDVSLNYLRQALAPAG | not soluble
MSDSTPKTPRGFVVHTAPVGLADDGRDDFTVLASTAPATVSAVFTRSRFAGPSVVLCREAVADGQARGVVVLARNANVATGLEGEENAREVREAVARALGLPEGEMLIASTGVIGRQYPMESIREHLKTLEWPAGEGGFDRAARAIMTTDTRPKEVRVSVGGATLVGIAKGVGMLEPDMATLLTFFATDARLDPAEQDRLFRRVMDRTFNAVSIDTDTSTSDTAVLFANGLAGEVDAGEFEEALHTAALALVKDIASDGEGAAKLIEVQVTGARDDAQAKRVGKTVVNSPLVKTAVHGCDPNWGRVAMAIGKCSDDTDIDQERVTIRFGEVEVYPPKARGDQADDALRAAVAEHLRGDEVVIGIDLAIADGAFTVYGCDLTEGYVRLNSEYTT | soluble
MVNAIRTPDQRFSNLDQYPFSPNYLDDLPGYPGLRAHYLDEGNSDAEDVFLCLHGEPTWSYLYRKMIPVFAESGARVIAPDFFGFGKSDKPVDEEDYTFEFHRNFLLALIERLDLRNITLVVQDWGGFLGLTLPMADPSRFKRLIIMNACLMTDPVTQPAFSAFVTQPADGFTAYKYDLVTPSDLRLDQFMKRWAPTLTEAEASAYAAPFPDTSYQAGVRKFPKMVAQRDQACIDISTEAISFWQNDWNGQTFMAIGMKDKLLGPDVMYPMKALINGCPEPLEIADAGHFVQEFGEQVAREALKHFAETE | soluble
MSDAMPLDQTLEQLTQDEWIDIPQGWSQGRTIYGGLVAGLLMHKALSVMNDESKNLLSTSITFVGPVNEGRVRLTVEILRQGKSVTTIEARLWQDQAVQTILIASFGQPRSSEIFVLEHHHHHH | soluble
MASMNDFIGRWKLVQTENFDEYMKEIGVGLITRKAAAHLKPILEIRLDGETWNFDQFSTFKNTKLSFKLGEEFVENSPDDRTYNSLFTFENGKLTHRQNKIKENHKSSVLTTWLENGKLIQTYQSGDVICRREWERE | not soluble
MGKTNDWLDFDQLAEEKVRDALKPPSMYKVILVNDDYTPMEFVIDVLQKFFSYDVERATQLMLAVHYQGKAICGVFTAEVAETKVAMVNKYARENEHPLLCTLEKAGA | soluble
MGRYIGPVCRLCRREGVKLYLKGERCYSPKCAMERRPYPPGQHGQKRARRPSDYAVRLREKQKLRRIYGISERQFRNLFEEASKKKGVTGSVFLGLLESRLDNVVYRLGFAVSRRQARQLVRHGHITVNGRRVDLPSYRVRPGDEIAVAEKSRNLELIRQNLEAMKGRKVGPWLSLDVEGMKGKFLRLPDREDLALPVNEQLVIEFYSR | soluble
MAHHHHHHMIDLTGKTSLITGASSGIGSAIARLLHKLGSKVIISGSNEEKLKSLGNALKDNYTIEVCNLANKEECSNLISKTSNLDILVCNAGITSDTLAIRMKDQDFDKVIDINLKANFILNREAIKKMIQKRYGRIINISSIVGIAGNPGQANYCASKAGLIGMTKSLSYEVATRGITVNAVAPGFIKSDMTDKLNEKQREAIVQKIPLGTYGIPEDVAYAVAFLASNNASYITGQTLHVNGGMLMV | soluble
SMLSRAKPAVGGESPHTDKRKKKGRKIPKLEDLLSQRDFTGAITLLEFKRHVGEQEDDTNLWIGYCAFHLGDYKRALEEYENATKEENCNPEVWVNLACTYFFLGMYKQAEAAGFKAPKSRLQNRLLFHLAHKFNDEKKLMNFHQNLQDIKEDQLSLASNSEIHLPLPPECWD | soluble
MKIAITGATGFVGQRLVERLQAEGHELRILSQRPTVAQQLTGCQVFDTATETSWLAALEGADAVVNLAGEPIAEQRWTPAQKQRLKNSRVQTTRALVTAITAATQKPQVLVTASAIGYYGTSETAQFTEESAAGQDYLAEICQAWEQEAQAVTVSGTRLVTLRIGIVVGPGGAIGKMLGPFKLFAGGPIGSGRQWVSWIQREDLVSLILEAIANPSYQGTYNATAPQAVRMADLSATLGEVLQRPSWLPVPAFALEALLGEGALLVLEGQQVLPKRLEAAGFQFRYPDLKSALQQFLPLEHHHHHH | not soluble
GMQKTAFIWDLDGTLLDSYEAILSGIEETFAQFSIPYDKEKVREFIFKYSVQDLLVRVAEDRNLDVEVLNQVRAQSLAEKNAQVVLMPGAREVLAWADESGIQQFIYTHKGNNAFTILKDLGVESYFTEILTSQSGFVRKPSPEAATYLLDKYQLNSDNTYYIGDRTLDVEFAQNSGIQSINFLESTYEGNHRIQALADISRIFETK | soluble
MTTDLITVKQVTKTYGSKNKEIAALKDISLAIPKGTTLGIIGESGSGKTTLGKLIAGIESPTSGEIDYNGQVVHKLKAAHKRDFLQKVQFIFQDSTAALNPRWKVRDSVTEGYISFGLGDKGLKDKVAGDALERVGLDRRYINRYPHEFSGGQRQRIAIARALLCEPEVLILDEPISALDVSLQIQIVHLLQKIQREQGYTYLFIAHDLPMVHYLCEKVAVLYKGELVEFGNTDEVFRNPQHSYTKTLLASTPKISG | not soluble
